Measured values taken from paper PMC5438308, “Structural and dynamic insights into the role of conformational switching in the nuclease activity of the Xanthomonas albilineans Cas2 in CRISPR-mediated adaptive immunity” (Structural Dynamics, 2017).

Molecular target: the molecule itself
Assay: SEC

B1: Xanthomonas albilineans Cas2 (enzyme)
chain: MMVLVSYDVSTSSPGGDKRLRKVAKACRDLGQRVQFSVFEIEVDPAQWTALRQRLCDLIDPDIDSLRFYHLGAKWEARVEHVGAKPSLDLKGPLIF
notes: Cas2 of Xanthomonas albilineans, subtype I-C CRISPR-Cas system; synthetic cas2 gene in pET21a; residue numbers in the structure run to 96 (C-terminal tails 87-96 / 86-96 not modelled); also called XaCas2; WT XaCas2; not shown: His6, C-terminal, kept
stoichiometry N: 2
